Laboratory results as given in article PMC10877577 (ACS Chemical Biology, 2024).
Entries after “also recorded” stand apart in the source; their conditions may differ. Bridges are numbered along the chain shown (N, C = ends). Where no end group is shown, it is not given here.

Experiments:
[1] = molecular target: anti-minocycline single-domain antibody clone 1 (aMinoC1 sdAb) (alpaca); assay: SPR; Biacore T200; aMino sdAbs immobilized on a CM5 chip (4300-4600 RU); 1x HBS-EP+; analyte from 2.5 uM in 2-fold serial dilutions, 150 s at 30 uL/min, 150 s dissociation; 1:1 Langmuir model
[2] = tested on: HEK-293T transduced with the aMinoC1 transmembrane receptor; assay: Flow cytometry of peptide-muIgG2a Fc binding to cells with aMinoC1 transmembrane receptor; format: cell-based, human; details: GWARA, HWAQA, PWAYS, QWAMM; increasing minocycline; caffeine 100 μM
Experimental: Flow cytometry was performed using the MACSQuant Analyzer 10 or MACSQuant X (Miltenyi Biotec). All flow cytometry data was analyzed using FlowJo v.7.6.2 software (Tree Star Inc., Ashland, OR). Cell staining was carried out by incubation with PBS containing the recommended concentration of antibodies at RT for 30 min. PBS washes were carried out between antibody staining. Cell viability was determined using viability dye SYTOX Blue Dead Cell Stain (ThermoFisher) prior to flow cytometric analysis. Cells were first gated for singlet population identified by FSC-H and FSC-A. Next, live cells were identified using a viability dye, followed by gating for target cell populations. The antibodies used in the study are as follows: CD3 PECy7 (Biolegend, 317334), Human CD34 APC-conjugated antibody (R&D system, FAB7227A), Human CD34 Alexa Fluor 488-conjugated antibody (R&D system, FAB7227G), Streptavidin PE (Biolegend, 405204), APC antihuman EGFR antibody (Biolegend, 352905), Alexa Fluor 488 antihuman EGFR antibody (Biolegend, 352907), PE anti-HA.11 Epitope Tag antibody (Biolegend, 901517), Anti-M13-HRP (Sino Biologics, 1197 mm05T-H), Anti-Myc-HRP (Genscript, A00863), and SYTOX Blue Dead Cell Stain (ThermoFisher, S10274).

[3] = tested on: MinoCAR-transduced PBMC against SupT1-EGFR+ target cells; format: cell-based; details: 0.1, 1 and 10 μM, 24 h, 1:2 E/T
Experimental: Transduced CAR T cells were determined by staining for the transduction marker RQR8 and normalized by the addition of nontransduced T cells. Effector cells were cocultured with 5.0 × 10^4 number of target cells (SupT1-NT, SupT1-EGFR+, SKOV3-mKate) to achieve the desired effector cell to target ratio. […] Cocultures were incubated for 24–72 h at 37 °C and 5% CO2. After incubation, plates were centrifuged at 400g for 5 min, and the supernatant containing secreted cytokines was collected for cytokine analysis. Cells were stained with anti-hCD34-APC and anti-CD3-PeCy7 to differentiate effector T cells and target cells. Cells were washed with 300 μL o PBS and stained with SYTOX Blue Dead Cell Stain dye. The percentage of target cell survival was measured relative to the number of live target cells cocultured with nonspecific CAR T cells or nontransduced PBMCs.

[4] = molecular target: anti-minocycline single-domain antibody clone 1 (aMinoC1 sdAb) (alpaca)
[5] = molecular target: anti-minocycline single-domain antibody clone 1 (aMinoC1 sdAb) (alpaca); remark: listed apart in the source
[6] = molecular target: anti-minocycline single-domain antibody clone 1 (aMinoC1 sdAb) (alpaca); remark: listed apart in the source
[7] = molecular target: sdAbs; details: read-out: affinity of sdAb for hapten; cited from earlier work
[8] = tested on: aMinoC1 sdAb; assay: SPR of peptide-Fc or small-molecule analytes against aMinoC1; format: binding, alpaca; details: molecules closely related to minocycline
Experimental: (§1) Binding assays were carried out using 1x HBS-EP+ running buffer. Various concentrations (2.5 μM with 2-fold serial dilutions) of the analyte were injected for 150 s at 30 μL/min with 150 s dissociation time. Glycine-HCl (pH 2.0) was used as the regeneration buffer for the sensor chips. For the rechallenge experiment, aMinoC1 was immobilized on a CM5 sensor chip and CX7C peptide-Fc conjugates were loaded at 100 nM and injected as the analyte for 150 s at 30 μL/min. Following the injection of peptide-Fc, a small molecule at 1 μM was injected for 300 s at 30 μL/min, using dual injection function on a Biacore 8k instrument, to dissociate the peptide-Fc from the aMinoC1-peptide complex. The system was then washed using HBS-P^+ buffer for 300 s at 30 μL/min prior to rechallenge with peptide-Fc. The cycle was repeated three times following a final dissociation step of 300 s. For the alanine scanning experiments, the anti-minocycline antibody (sdAb-muIgG2a-Fc fusion) was captured on a Protein A series S sensor chip, to a density of 3000 RU. […] Glycine-HCl (pH 1.5) was used as the regeneration buffer. In each case, flow cell 1 was used for reference subtraction, and a “0 concentration” sensogram of buffer alone was used as a double reference subtraction to factor for drift. Data analysis was carried out using Biacore T200 Evaluation Software, version 3.0, and Biacore Insight evaluation software. […]

[9] = tested on: aMinoC22 sdAb; assay: SPR of related small molecules against aMinoC22; format: binding, alpaca; details: molecules closely related to minocycline
Experimental: as §1

[10] = tested on: aMinoC1-peptide complex; assay: SPR rechallenge: small-molecule-driven dissociation of peptide-Fc from immobilized aMinoC1; format: binding; details: peptide-Fc 100 nM, small molecule 1 μM
Experimental: Binding assays were carried out using 1x HBS-EP+ running buffer. Various concentrations (2.5 μM with 2-fold serial dilutions) of the analyte were injected for 150 s at 30 μL/min with 150 s dissociation time. Glycine-HCl (pH 2.0) was used as the regeneration buffer for the sensor chips. For the rechallenge experiment, aMinoC1 was immobilized on a CM5 sensor chip and CX7C peptide-Fc conjugates were loaded at 100 nM and injected as the analyte for 150 s at 30 μL/min. Following the injection of peptide-Fc, a small molecule at 1 μM was injected for 300 s at 30 μL/min, using dual injection function on a Biacore 8k instrument, to dissociate the peptide-Fc from the aMinoC1-peptide complex. The system was then washed using HBS-P^+ buffer for 300 s at 30 μL/min prior to rechallenge with peptide-Fc. The cycle was repeated three times following a final dissociation step of 300 s. For the alanine scanning experiments, the anti-minocycline antibody (sdAb-muIgG2a-Fc fusion) was captured on a Protein A series S sensor chip, to a density of 3000 RU. […] Glycine-HCl (pH 1.5) was used as the regeneration buffer. In each case, flow cell 1 was used for reference subtraction, and a “0 concentration” sensogram of buffer alone was used as a double reference subtraction to factor for drift. Data analysis was carried out using Biacore T200 Evaluation Software, version 3.0, and Biacore Insight evaluation software. The 1:1 Langmuir binding model was used to calculate the association (ka), dissociation (kd) rate constants, and equilibrium dissociation constant (KD).

[11] = molecular target: minocycline; assay: SPR
[12] = molecular target: T1, GWARA CX7C peptide-muIgG2a-Fc fusion; assay: ELISA; details: chain shown with the change
T1 chain: ACPGWARAFC

[13] = molecular target: T2, PWAYS CX7C peptide-muIgG2a-Fc fusion (disulfide 1-9 (inferred); also: fused to muIgG2a Fc, end not given here); assay: SPR
T2 chain: CPPWAYSFC

[14] = molecular target: T3, HWAQA CX7C peptide-muIgG2a-Fc fusion (disulfide 1-9 (inferred); also: fused to muIgG2a Fc, end not given here); assay: SPR
T3 chain: CPHWAQAFC

[15] = molecular target: T4, GWARA CX7C peptide-muIgG2a-Fc fusion (disulfide 2-10 (inferred); also: fused to muIgG2a Fc, end not given here); assay: SPR
T4 chain: ACPGWARAFC

[16] = molecular target: T5, QWAMM CX7C peptide-muIgG2a-Fc fusion (disulfide 1-9 (inferred); also: fused to muIgG2a Fc, end not given here); assay: SPR
T5 chain: CPQWAMMFC

## QWAMM CX7C peptide-muIgG2a-Fc fusion
[1]
  Kd: 209 nM

## Cn1c(=O)c2c(ncn2C)n(C)c1=O [caffeine]
[2]
  peptide-muIgG2a Fc binding to membrane-bound aMinoC1 in presence of small molecule: no peptide-binding inhibition; also recorded: did not result in a decrease in peptide binding
[3]
  effect of other small molecules on MinoCAR cytotoxicity: not affected

## GWARA CX7C peptide-muIgG2a-Fc fusion
[4]
  IFN-y release by MinoUniCAR PBMCs (aMinoC1-CD8stk-CD28TM-CD28-41BBz) with the soluble aEGFR sdAb-GWARA adaptor, 0 uM against 10 uM minocycline: 1570 pg/mL
[5]
  IFN-γ secretion by PBMCs transduced with the aMinoC1/GWARA-MyD88/CD40 module against the SG3S-peptide negative control, no minocycline; tuned down about 2-fold by increasing minocycline: 520 pg/mL
[6]
  IL12 secreted by T cells that co-express GWARA-flexi-IL12 and aMinoC1-KDEL without minocycline (retention); released up to 150 pg/mL on day 2 and 2.2 ug/mL on day 7 with minocycline up to 2.5 uM: 450 pg/mL
[1]
  Kd: 111 nM

## PWAYS CX7C peptide-muIgG2a-Fc fusion
[1]
  Kd: 283 nM

## O=C(Nc1ccc(Cl)cc1)Nc1ccc(Cl)c(Cl)c1 [triclocarbon]
[7]
  Kd: 0.98 to 1.37 nM

## CC(=O)OC[C@]12[C@H](O)C(=O)C(C)=C[C@H]1O[C@@H]1[C@H](O)C[C@@]2(C)[C@]12CO2 [15-acetyl-deoxynivalenol]
[7]
  Kd: 5000 to 215000 nM

## HWAQA CX7C peptide-muIgG2a-Fc fusion
[1]
  Kd: 328 nM

## Nc1c(Cl)c(Cl)nc(C(=O)O)c1Cl [picloram]
[7]
  Kd: 3000 to 354000 nM

## auxin
[7]
  Kd: 500 to 20000 nM

## CN(Cc1cnc2nc(N)nc(N)c2n1)c1ccc(C(=O)N[C@@H](CCC(=O)O)C(=O)O)cc1 [methotrexate]
[3]
  effect of other small molecules on MinoCAR cytotoxicity: not affected
[7]
  Kd: 29 to 515 nM

## C[C@H]1c2cccc(O)c2C(=O)C2=C(O)[C@]3(O)C(=O)C(C(N)=O)=C(O)[C@@H](N(C)C)[C@@H]3[C@@H](O)[C@@H]21 [doxycycline]
[8]
  binding to aMinoC1 (SPR): Neither sdAb showed an interaction; also recorded: lack of binding; also recorded: without cross-reactivity
[9]
  binding to aMinoC22 (SPR): Neither sdAb showed an interaction; also recorded: lack of binding
[10]
  GWARA-Fc dissociation from immobilized aMinoC1 on small-molecule injection: No enhanced dissociation
  peptide-Fc (HWAQA, PWAYS and QWAMM) dissociation from immobilised aMinoC1 on small-molecule injection: No enhanced dissociation
[3]
  effect of other small molecules on MinoCAR cytotoxicity: not affected

B1: anti-minocycline single-domain antibody clone 1 (aMinoC1 sdAb) R64A (protein)
chain: QVQLESGGGLVQPGSSLRLSCAASGRTFSSYNIGWFRQAPKEREFVAAISWSGAATYYADSVKGRFTISRDNAKNTVYLQMNSLKPEDTAVYSCAAGRGWGTEAILDYWGQGTQVSSA
[11]
  ratio to parent: 1.15
[12]
  ratio to parent: 0.18

B2: anti-minocycline single-domain antibody clone 1 (aMinoC1 sdAb) A63S (protein)
chain: QVQLESGGGLVQPGSSLRLSCAASGRTFSSYNIGWFRQAPKEREFVAAISWSGSRTYYADSVKGRFTISRDNAKNTVYLQMNSLKPEDTAVYSCAAGRGWGTEAILDYWGQGTQVSSA
[11]
  ratio to parent: 0.77
[12]
  ratio to parent: 0.12

B3: anti-minocycline single-domain antibody clone 1 (aMinoC1 sdAb) R108A (protein)
chain: QVQLESGGGLVQPGSSLRLSCAASGRTFSSYNIGWFRQAPKEREFVAAISWSGARTYYADSVKGRFTISRDNAKNTVYLQMNSLKPEDTAVYSCAAGAGWGTEAILDYWGQGTQVSSA
[11]
  ratio to parent: 0.88
[12]
  ratio to parent: 0.17

B4: anti-minocycline single-domain antibody clone 1 (aMinoC1 sdAb) W58A (protein)
chain: QVQLESGGGLVQPGSSLRLSCAASGRTFSSYNIGWFRQAPKEREFVAAISASGARTYYADSVKGRFTISRDNAKNTVYLQMNSLKPEDTAVYSCAAGRGWGTEAILDYWGQGTQVSSA
[11]
  ratio to parent: 1.06
[12]
  ratio to parent: 0.25

B5: anti-minocycline single-domain antibody clone 1 (aMinoC1 sdAb) (VHH)
VHH: QVQLESGGGLVQPGSSLRLSCAASGRTFSSYNIGWFRQAPKEREFVAAISWSGARTYYADSVKGRFTISRDNAKNTVYLQMNSLKPEDTAVYSCAAGRGWGTEAILDYWGQGTQVSSA
[13]
  koff: 0.0056 s⁻¹
[14]
  koff: 0.0058 s⁻¹
[15]
  koff: 0.017 s⁻¹
[16]
  koff: 0.0043 s⁻¹

B6: anti-minocycline single-domain antibody clone 1 (aMinoC1 sdAb) G40A (protein)
chain: QVQLESGGGLVQPGSSLRLSCAASGRTFSSYNIAWFRQAPKEREFVAAISWSGARTYYADSVKGRFTISRDNAKNTVYLQMNSLKPEDTAVYSCAAGRGWGTEAILDYWGQGTQVSSA
[11]
  ratio to parent: 1.7
[12]
  ratio to parent: 0.23

B7: anti-minocycline single-domain antibody clone 1 (aMinoC1 sdAb) S35A (protein)
chain: QVQLESGGGLVQPGSSLRLSCAASGRTFASYNIGWFRQAPKEREFVAAISWSGARTYYADSVKGRFTISRDNAKNTVYLQMNSLKPEDTAVYSCAAGRGWGTEAILDYWGQGTQVSSA
[11]
  ratio to parent: 0.97
[12]
  ratio to parent: 0.15

B8: anti-minocycline single-domain antibody clone 1 (aMinoC1 sdAb) R28A (protein)
chain: QVQLESGGGLVQPGSSLRLSCAASGATFSSYNIGWFRQAPKEREFVAAISWSGARTYYADSVKGRFTISRDNAKNTVYLQMNSLKPEDTAVYSCAAGRGWGTEAILDYWGQGTQVSSA
[11]
  ratio to parent: 1.28
[12]
  ratio to parent: 0.17
